Assay [1] deals with human CD2 on cells (MOLT-4 human T lymphoblast cells; primary human T-cells; primary human NK cells) (human) (UniProt P06729). Description: flow cytometry on MOLT-4 cells, anti-mouse AF488 secondary, 4 C. A general note: Flow cytometry measures light scatter and fluorescence of single cells or particles in a stream.
In assay [2] the target is T1, human CD2 on cells (MOLT-4 human T lymphoblast cells; primary human T-cells; primary human NK cells) (human, UniProt P06729 25-351).
T1 sequence: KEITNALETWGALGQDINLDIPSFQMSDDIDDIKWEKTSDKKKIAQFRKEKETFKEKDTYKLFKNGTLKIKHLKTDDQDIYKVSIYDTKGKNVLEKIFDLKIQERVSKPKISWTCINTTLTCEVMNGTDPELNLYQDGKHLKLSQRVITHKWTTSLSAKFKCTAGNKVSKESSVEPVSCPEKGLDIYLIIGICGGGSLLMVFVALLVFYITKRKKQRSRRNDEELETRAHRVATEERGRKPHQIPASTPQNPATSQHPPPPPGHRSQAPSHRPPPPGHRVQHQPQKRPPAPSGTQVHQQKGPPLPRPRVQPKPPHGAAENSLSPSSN
Description: cell-based or functional assay.

One may read the EC50 as the concentration at which the effect is half-maximal. High values mean weaker potency, low ones greater potency. TS1/8 (antibody) gave an EC50 in assay [1] of 0.125 nM.

B1: anti-CD2-amanitin ADC (RPA-2.10-AM), interchain, average drug-to-antibody ratio 6 (antibody, V domains shown)
VH: EVKLVESGGGLVKPGGSLKLSCAASGFTFSSYDMSWVRQTPEKRLEWVASISGGGFLYYLDSVKGRFTISRDNARNILYLHMTSLRSEDTAMYYCARSSYGEIMDYWGQGTSVTVSS
VL: DILLTQSPAILSVSPGERVSFSCRASQRIGTSIHWYQQRTTGSPRLLIKYASESISGIPSRFSGSGSGTDFTLSINSVESEDVADYYCQQSHGWPFTFGGGTKLEIER
Consider B1, for which the “NK cell viability (CellTiter-Glo), in vitro NK-cell killing assay, IC50” value in assay [2] was found to be 0.0052 nM.

Values taken from patent US20200368363A1 (MAGENTA THEERAPEUTICS, published 2020).
